ChEMBL document CHEMBL1649237, “IND-6, a highly divergent IND-type metallo-beta-lactamase from Chryseobacterium indologenes strain 597 isolated in Burkina Faso” (2009)

Tests used:
[1] = substrate: O=C(Cc1cccs1)N[C@@H]1C(=O)N2C(C(=O)[O-])=C(C[n+]3ccccc3)CS[C@H]12; test: (§1) Ratio of Kcat to Km for Chryseobacterium meningosepticum CCUG 4310 beta-lactamase BlaB1 expressed in Escherichia coli DH5alpha by Michaelis-Menten equation; conditions: Elizabethkingia meningoseptica
[2] = substrate: CO/N=C(\C(=O)N[C@@H]1C(=O)N2C(C(=O)O)=C(COC(N)=O)CS[C@H]12)c1ccco1; test: as §1; conditions: Elizabethkingia meningoseptica
[3] = substrate: C[C@@H](O)[C@H]1C(=O)N2C(C(=O)O)=C(SCCNC=N)C[C@H]12; test: as §1; conditions: Elizabethkingia meningoseptica
[4] = substrate: CC1(C)S[C@@H]2[C@H](NC(=O)Cc3ccccc3)C(=O)N2[C@H]1C(=O)O; test: as §1; conditions: Elizabethkingia meningoseptica
[5] = substrate: CC(C)(O/N=C(\C(=O)N[C@@H]1C(=O)N2C(C(=O)[O-])=C(C[n+]3ccccc3)CS[C@H]12)c1csc(N)n1)C(=O)O; test: as §1; conditions: Elizabethkingia meningoseptica
[6] = substrate: CC1(C)S[C@@H]2[C@H](NC(=O)C(C(=O)O)c3ccccc3)C(=O)N2[C@H]1C(=O)O; test: as §1; conditions: Elizabethkingia meningoseptica
[7] = substrate: CC(=O)OCC1=C(C(=O)O)N2C(=O)[C@@H](NC(=O)Cc3cccs3)[C@H]2SC1; test: as §1; conditions: Elizabethkingia meningoseptica
[8] = substrate: C[C@@H](O)[C@H]1C(=O)N2C(C(=O)O)=C(S[C@@H]3CN[C@H](C(=O)N(C)C)C3)[C@H](C)[C@H]12; test: as §1; conditions: Elizabethkingia meningoseptica
[9] = substrate: CO/N=C(\C(=O)N[C@@H]1C(=O)N2C(C(=O)[O-])=C(C[N+]3(C)CCCC3)CS[C@H]12)c1csc(N)n1; test: as §1; conditions: Elizabethkingia meningoseptica
[10] = substrate: CO/N=C(\C(=O)N[C@@H]1C(=O)N2C(C(=O)O)=C(COC(C)=O)CS[C@H]12)c1csc(N)n1; test: as §1; conditions: Elizabethkingia meningoseptica
[11] = substrate: O=C(Cc1cccs1)N[C@@H]1C(=O)N2C(C(=O)O)=C(/C=C/c3ccc([N+](=O)[O-])cc3[N+](=O)[O-])CS[C@H]12; test: as §1; conditions: Elizabethkingia meningoseptica
[12] = substrate: C[C@@H](O)[C@H]1C(=O)N2C(C(=O)O)=C(SCCNC=N)C[C@H]12; test: (§2) Ratio of Kcat to Km for Chryseobacterium indologenes 597 metallo-beta-lactamase IND-2 expressed in Escherichia coli DH5alpha by Michaelis-Menten equation
[13] = substrate: CC1(C)S[C@@H]2[C@H](NC(=O)Cc3ccccc3)C(=O)N2[C@H]1C(=O)O; test: as §2
[14] = substrate: CC(C)(O/N=C(\C(=O)N[C@@H]1C(=O)N2C(C(=O)[O-])=C(C[n+]3ccccc3)CS[C@H]12)c1csc(N)n1)C(=O)O; test: as §2
[15] = substrate: CC(=O)OCC1=C(C(=O)O)N2C(=O)[C@@H](NC(=O)Cc3cccs3)[C@H]2SC1; test: as §2
[16] = substrate: C[C@@H](O)[C@H]1C(=O)N2C(C(=O)O)=C(S[C@@H]3CN[C@H](C(=O)N(C)C)C3)[C@H](C)[C@H]12; test: as §2
[17] = substrate: CO/N=C(\C(=O)N[C@@H]1C(=O)N2C(C(=O)[O-])=C(C[N+]3(C)CCCC3)CS[C@H]12)c1csc(N)n1; test: as §2
[18] = substrate: CO/N=C(\C(=O)N[C@@H]1C(=O)N2C(C(=O)O)=C(COC(C)=O)CS[C@H]12)c1csc(N)n1; test: as §2
[19] = substrate: O=C(Cc1cccs1)N[C@@H]1C(=O)N2C(C(=O)[O-])=C(C[n+]3ccccc3)CS[C@H]12; test: (§3) Ratio of Kcat to Km for Chryseobacterium indologenes 597 metallo-beta-lactamase IND-6 expressed in Escherichia coli DH5alpha by Michaelis-Menten equation
[20] = substrate: CO/N=C(\C(=O)N[C@@H]1C(=O)N2C(C(=O)O)=C(COC(N)=O)CS[C@H]12)c1ccco1; test: as §3
[21] = substrate: C[C@@H](O)[C@H]1C(=O)N2C(C(=O)O)=C(SCCNC=N)C[C@H]12; test: as §3
[22] = substrate: CC1(C)S[C@@H]2[C@H](NC(=O)Cc3ccccc3)C(=O)N2[C@H]1C(=O)O; test: as §3
[23] = substrate: CC(C)(O/N=C(\C(=O)N[C@@H]1C(=O)N2C(C(=O)[O-])=C(C[n+]3ccccc3)CS[C@H]12)c1csc(N)n1)C(=O)O; test: as §3
[24] = substrate: CC1(C)S[C@@H]2[C@H](NC(=O)[C@H](N)c3ccc(O)cc3)C(=O)N2[C@H]1C(=O)O; test: as §3
[25] = substrate: CC1(C)S[C@@H]2[C@H](NC(=O)C(C(=O)O)c3ccccc3)C(=O)N2[C@H]1C(=O)O; test: as §3
[26] = substrate: CC(=O)OCC1=C(C(=O)O)N2C(=O)[C@@H](NC(=O)Cc3cccs3)[C@H]2SC1; test: as §3
[27] = substrate: C[C@@H](O)[C@H]1C(=O)N2C(C(=O)O)=C(S[C@@H]3CN[C@H](C(=O)N(C)C)C3)[C@H](C)[C@H]12; test: as §3
[28] = substrate: CO/N=C(\C(=O)N[C@@H]1C(=O)N2C(C(=O)[O-])=C(C[N+]3(C)CCCC3)CS[C@H]12)c1csc(N)n1; test: as §3
[29] = substrate: CC1=C(C(=O)O)N2C(=O)[C@@H](NC(=O)[C@H](N)c3ccccc3)[C@H]2SC1; test: as §3
[30] = substrate: CO/N=C(\C(=O)N[C@@H]1C(=O)N2C(C(=O)O)=C(COC(C)=O)CS[C@H]12)c1csc(N)n1; test: as §3
[31] = substrate: O=C(Cc1cccs1)N[C@@H]1C(=O)N2C(C(=O)O)=C(/C=C/c3ccc([N+](=O)[O-])cc3[N+](=O)[O-])CS[C@H]12; test: as §3
[32] = substrate: O=C(Cc1cccs1)N[C@@H]1C(=O)N2C(C(=O)[O-])=C(C[n+]3ccccc3)CS[C@H]12; test: (§4) Activity at Chryseobacterium indologenes 597 metallo-beta-lactamase IND-6 expressed in Escherichia coli DH5alpha by Michaelis-Menten equation
[33] = substrate: CO/N=C(\C(=O)N[C@@H]1C(=O)N2C(C(=O)O)=C(COC(N)=O)CS[C@H]12)c1ccco1; test: as §4
[34] = substrate: C[C@@H](O)[C@H]1C(=O)N2C(C(=O)O)=C(SCCNC=N)C[C@H]12; test: as §4
[35] = substrate: CC1(C)S[C@@H]2[C@H](NC(=O)Cc3ccccc3)C(=O)N2[C@H]1C(=O)O; test: as §4
[36] = substrate: CC(C)(O/N=C(\C(=O)N[C@@H]1C(=O)N2C(C(=O)[O-])=C(C[n+]3ccccc3)CS[C@H]12)c1csc(N)n1)C(=O)O; test: as §4
[37] = substrate: CC1(C)S[C@@H]2[C@H](NC(=O)[C@H](N)c3ccc(O)cc3)C(=O)N2[C@H]1C(=O)O; test: as §4
[38] = substrate: CC1(C)S[C@@H]2[C@H](NC(=O)C(C(=O)O)c3ccccc3)C(=O)N2[C@H]1C(=O)O; test: as §4
[39] = substrate: CC(=O)OCC1=C(C(=O)O)N2C(=O)[C@@H](NC(=O)Cc3cccs3)[C@H]2SC1; test: as §4
[40] = substrate: C[C@@H](O)[C@H]1C(=O)N2C(C(=O)O)=C(S[C@@H]3CN[C@H](C(=O)N(C)C)C3)[C@H](C)[C@H]12; test: as §4
[41] = substrate: CO/N=C(\C(=O)N[C@@H]1C(=O)N2C(C(=O)[O-])=C(C[N+]3(C)CCCC3)CS[C@H]12)c1csc(N)n1; test: as §4
[42] = substrate: CC1=C(C(=O)O)N2C(=O)[C@@H](NC(=O)[C@H](N)c3ccccc3)[C@H]2SC1; test: as §4
[43] = substrate: CO/N=C(\C(=O)N[C@@H]1C(=O)N2C(C(=O)O)=C(COC(C)=O)CS[C@H]12)c1csc(N)n1; test: as §4
[44] = substrate: O=C(Cc1cccs1)N[C@@H]1C(=O)N2C(C(=O)O)=C(/C=C/c3ccc([N+](=O)[O-])cc3[N+](=O)[O-])CS[C@H]12; test: as §4
[45] = substrate: C[C@@H](O)[C@H]1C(=O)N2C(C(=O)O)=C(SCCNC=N)C[C@H]12; test: (§5) Ratio of Kcat to Km for Chryseobacterium indologenes 597 metallo-beta-lactamase […] expressed in Escherichia coli DH5alpha by Michaelis-Menten equation
[46] = substrate: CC1(C)S[C@@H]2[C@H](NC(=O)Cc3ccccc3)C(=O)N2[C@H]1C(=O)O; test: as §5
[47] = substrate: CC1(C)S[C@@H]2[C@H](NC(=O)C(C(=O)O)c3ccccc3)C(=O)N2[C@H]1C(=O)O; test: as §5
[48] = substrate: C[C@@H](O)[C@H]1C(=O)N2C(C(=O)O)=C(S[C@@H]3CN[C@H](C(=O)N(C)C)C3)[C@H](C)[C@H]12; test: as §5
[49] = substrate: CO/N=C(\C(=O)N[C@@H]1C(=O)N2C(C(=O)O)=C(COC(C)=O)CS[C@H]12)c1csc(N)n1; test: as §5

B1: Metallo-beta-lactamase type 2 (Flavobacterium meningosepticum), O08498 (protein)
chain: MLKKIKISLILALGLTSLQAFGQENPDVKIEKLKDNLYVYTTYNTFNGTKYAANAVYLVTDKGVVVIDCPWGEDKFKSFTDEIYKKHGKKVIMNIATHSHDDRAGGLEYFGKIGAKTYSTKMTDSILAKENKPRAQYTFDNNKSFKVGKSEFQVYYPGKGHTADNVVVWFPKEKVLVGGCIIKSADSKDLGYIGEAYVNDWTQSVHNIQQKFSGAQYVVAGHDDWKDQRSIQHTLDLINEYQQKQKASN
kcat/Km [1]: 1.4 ×10⁵ /M/s
kcat/Km [2]: 1 ×10⁶ /M/s
kcat/Km [3]: 2 ×10⁶ /M/s
kcat/Km [4]: 2.7 ×10⁷ /M/s
kcat/Km [5]: 6.6 ×10³ /M/s
kcat/Km [6]: 6.1 ×10⁶ /M/s
kcat/Km [7]: 1.6 ×10⁶ /M/s
kcat/Km [8]: 7.6 ×10⁵ /M/s
kcat/Km [9]: 2 ×10² /M/s
kcat/Km [10]: 7.9 ×10⁵ /M/s
kcat/Km [11]: 3.9 ×10⁶ /M/s

B2: Metallo-beta-lactamase IND-2 (Chryseobacterium indologenes), Q9F923 (protein)
chain: MKKSIQLLMMSMFLSPLINAQVKDFVIEPPVKPNLYLYKSFGVFGGKEYSANAVYLTTKKGVVLFDVPWQKEQYQTLMDTIQKRHHLPVIAVFATHSHDDRAGDLSFYNQKGIKTYATAKTNELLKKDGKATSTEIIKTGKPYKIGGEEFMVDFLGEGHTVDNVVVWFPKYKVLDGGCLVKSRTATDLGYTGEANVKQWPETMRKLKTKYAQATLVIPGHDEWKGGGHVQHTLDLLDKN
kcat/Km [12]: 5.9 ×10⁵ /M/s
kcat/Km [13]: 4.6 ×10⁶ /M/s
kcat/Km [14]: 4.5 ×10³ /M/s
kcat/Km [15]: 1.2 ×10⁶ /M/s
kcat/Km [16]: 1.8 ×10⁵ /M/s
kcat/Km [17]: 4.5 ×10² /M/s
kcat/Km [18]: 9 ×10⁵ /M/s

B3: Metallo-beta-lactamase IND-6 (Chryseobacterium indologenes), Q08I33 (protein)
chain: MKRRIQFFMVSMMLTPLFSAQVKDFVIEPPIKKNLYIYKTFGVFGGKEYSANSVYLVTKTGVVLFDVPWEKAQYQSLMDTIKKRHNLPVVAVFATHSHDDRAGDLSFFNNKGIKTYATPKTNQFLKRDGKATSTELIKPGKPYRFGGEEFVVDFLGEGHTADNVVVWFPKYKVLDGGCLVKSNSATDLGYIKEANLEQWPKTMHKLKTKYSEAVLIIPGHDEWKGGGHVEHTLELLDKK
kcat/Km [19]: 5.4 ×10⁶ /M/s
kcat/Km [20]: 3.3 ×10⁶ /M/s
kcat/Km [21]: 3.8 ×10⁶ /M/s
kcat/Km [22]: 1.5 ×10⁷ /M/s
kcat/Km [23]: 2.7 ×10⁵ /M/s
kcat/Km [24]: 5.6 ×10⁶ /M/s
kcat/Km [25]: 7 ×10⁶ /M/s
kcat/Km [26]: 6.9 ×10⁶ /M/s
kcat/Km [27]: 1.7 ×10⁵ /M/s
kcat/Km [28]: 4 ×10³ /M/s
kcat/Km [29]: 6.3 ×10⁶ /M/s
kcat/Km [30]: 2.4 ×10⁵ /M/s
kcat/Km [31]: 2.7 ×10⁶ /M/s
Km [32]: 90 µM
kcat [32]: 490 s⁻¹
Km [33]: 23 µM
kcat [33]: 75 s⁻¹
Km [34]: 13 µM
kcat [34]: 50 s⁻¹
Km [35]: 20 µM
kcat [35]: 305 s⁻¹
Km [36]: 22 µM
kcat [36]: 6 s⁻¹
Km [37]: 85 µM
kcat [37]: 480 s⁻¹
Km [38]: 30 µM
kcat [38]: 210 s⁻¹
Km [39]: 60 µM
kcat [39]: 415 s⁻¹
Km [40]: 145 µM
kcat [40]: 25 s⁻¹
Km [41]: > 300 µM
kcat [41]: > 1.2 s⁻¹
Km [42]: 3 µM
kcat [42]: 19 s⁻¹
Km [43]: 33 µM
kcat [43]: 8 s⁻¹
Km [44]: 43 µM
kcat [44]: 115 s⁻¹

B4: IND-like metallo-beta-lactamase (Chryseobacterium indologenes), Q6JE29 (protein)
chain: MKKRIQFFMVSMMLAPMFNAQVKDFVIEPPIKNNLHIYKTFGVFGGKEYSANSVYLVTKKGVVLFDVPWEKAQYQSLMDTIKKRHNLPVIAVFATHSHDDRAGDLSFFNNKGIKTYATSKTNEFLKKDGKATSTEIIKTGKPYRIGGEEFTVDFLGEGHTADNVVVWFPKYNVLDGGCLVKSNSATDLGYIKEANVEQWPITIDKLKAKYSKATLIIPGHDDWKGGGHVEHTLELLNKK
kcat/Km [45]: 2.4 ×10⁴ /M/s
kcat/Km [46]: 8.4 ×10⁵ /M/s
kcat/Km [47]: 5.3 ×10⁴ /M/s
kcat/Km [48]: 1.5 ×10⁴ /M/s
kcat/Km [49]: 3.1 ×10⁴ /M/s
